# Paper PMC4141822
# Substitutions are numbered along the chain they refer to. Names may count otherwise.
# T1: Csa5 (Csa5b) WT (Thermoproteus tenax Kra1) (UniProt G4RJZ0)
# T1 sequence: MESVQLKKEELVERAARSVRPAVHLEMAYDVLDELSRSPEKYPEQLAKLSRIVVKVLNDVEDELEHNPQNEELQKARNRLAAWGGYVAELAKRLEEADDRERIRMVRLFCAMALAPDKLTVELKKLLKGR
# T2: Thermoproteus tenax Cas7 (Thermoproteus tenax, UniProt G4RJZ1 1-329)
# T2 sequence (looked up): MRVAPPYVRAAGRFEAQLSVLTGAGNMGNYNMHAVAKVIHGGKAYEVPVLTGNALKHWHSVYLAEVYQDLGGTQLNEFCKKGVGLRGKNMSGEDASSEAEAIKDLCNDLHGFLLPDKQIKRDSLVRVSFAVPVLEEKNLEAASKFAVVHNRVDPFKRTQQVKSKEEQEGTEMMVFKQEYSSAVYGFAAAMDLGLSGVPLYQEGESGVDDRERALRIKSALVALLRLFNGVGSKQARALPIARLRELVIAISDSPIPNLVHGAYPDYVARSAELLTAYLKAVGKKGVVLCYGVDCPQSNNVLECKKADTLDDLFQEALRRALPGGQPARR
# T3: Thermoproteus tenax Cas5a (Thermoproteus tenax, UniProt G4RJZ2 1-226)
# T3 sequence (looked up): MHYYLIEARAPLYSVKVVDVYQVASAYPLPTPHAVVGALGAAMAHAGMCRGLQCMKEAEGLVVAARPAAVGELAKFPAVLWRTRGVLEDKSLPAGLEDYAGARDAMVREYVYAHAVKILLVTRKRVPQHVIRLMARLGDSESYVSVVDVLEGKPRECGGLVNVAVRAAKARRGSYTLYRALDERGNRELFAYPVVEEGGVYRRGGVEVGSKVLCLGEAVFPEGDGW
# T4: Thermoproteus tenax Cas8a2 (Thermoproteus tenax, UniProt G4RJZ5 1-361)
# T4 construct: also called large subunit
# T4 sequence (looked up): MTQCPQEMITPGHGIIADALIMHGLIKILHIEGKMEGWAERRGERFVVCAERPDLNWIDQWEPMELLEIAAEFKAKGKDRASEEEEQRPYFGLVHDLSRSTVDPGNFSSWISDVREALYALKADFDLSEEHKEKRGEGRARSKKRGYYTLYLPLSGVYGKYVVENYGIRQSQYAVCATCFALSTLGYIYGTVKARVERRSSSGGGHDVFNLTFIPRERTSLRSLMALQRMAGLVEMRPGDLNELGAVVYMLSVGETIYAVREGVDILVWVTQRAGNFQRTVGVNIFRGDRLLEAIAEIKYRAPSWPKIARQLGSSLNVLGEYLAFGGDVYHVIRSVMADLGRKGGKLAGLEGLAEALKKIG
# T5: Csa5 (Csa5b) WT (Thermoproteus tenax Kra1, UniProt G4RJZ0 1-130)
# T5 sequence: T1 sequence
# B1: Thermoproteus tenax Csa5 wild type (TTX_1250) (natural protein, Thermoproteus tenax Kra1, UniProt G4RJZ0 1-130, looked up)
# chain: T1 sequence
# notes: Csa5 (Csa5b), small subunit of the type I-A Cascade, Thermoproteus tenax Kra1, locus TTX_1250; theoretical mass of the monomer 15.04 kDa; no tag is named and the purification uses none; also called Csa5 WT; Csa5b; source: E. coli Rosetta(DE3)pLysS, purified (heat precipitation 90°C, Blue-Sepharose, MonoQ)
# B2: Thermoproteus tenax Csa5 D30A/D33A (natural protein, Thermoproteus tenax Kra1, UniProt G4RJZ0 1-130, looked up)
# chain: T1 sequence with D30A, D33A
# notes: Made by site-directed mutagenesis of the pET24a csa5 construct; source: E. coli Rosetta(DE3)pLysS, purified (heat precipitation 90°C, Blue-Sepharose, MonoQ)
# B3: Thermoproteus tenax Csa5 D33A (natural protein, Thermoproteus tenax Kra1, UniProt G4RJZ0 1-130, looked up)
# chain: T1 sequence with D33A
# notes: as for B2
# B4: Thermoproteus tenax Csa5 Y29A (natural protein, Thermoproteus tenax Kra1, UniProt G4RJZ0 1-130, looked up)
# chain: T1 sequence with Y29A
# notes: as for B2
# B5: Cy3-non-target ssDNA 80 nt (ssDNA)
# DNA: CGACTCACTATAGGCCTATCGCTTGTCCAACCGGGCTCCTCTATATGTCGTCATTAGCTTACCGCTGAGCAATAACTAGC
# B6: AGG-PAM poly-PAM ssDNA (ssDNA)
# DNA: AAAAGGAAAAGGAAAAGGAAAAGGAAAAGGAAAAGGAAAAGGAAAAGGAAAAGGAAAAGGAAAAGGAAAAGGAAAAGGAAAAGGAAAAGGAAAAGGAAAA
# B7: target (T) ssDNA 97 nt (ssDNA)
# DNA: AAGCTTGCTAGTTATTGCTCAGCGGTAAGCTAATGACGACATATAGAGGAGCCCGGTTGGACAAGCGATAGGCCTATAGTGAGTCGTATTAGTCGAC
# B8: T DNA:crRNA hybrid (DNA:RNA)
# DNA: B7 DNA
# RNA: AUUGAAAGAUCGCUUGUCCAACCGGGCUCCUCUAUAUGUCGUCAUUAGCUUAGA
# B9: CAC-PAM disrupted poly-PAM ssDNA (ssDNA)
# DNA: AAAACACAAACACAAACACAAACACAAACACAAACACAAACACAAACACAAACACAAACACAAACACAAACACAAACACAAACACAAACACAAACACAAA
# B10: CCA-PAM poly-PAM ssDNA (ssDNA)
# DNA: AAAACCAAAACCAAAACCAAAACCAAAACCAAAACCAAAACCAAAACCAAAACCAAAACCAAAACCAAAACCAAAACCAAAACCAAAACCAAAACCAAAA
# B11: GAG-PAM disrupted poly-PAM ssDNA (ssDNA)
# DNA: AAAAGAGAAAGAGAAAGAGAAAGAGAAAGAGAAAGAGAAAGAGAAAGAGAAAGAGAAAGAGAAAGAGAAAGAGAAAGAGAAAGAGAAAGAGAAAGAGAAA
# Legend:
# [1] = biological target: T1, Csa5 (Csa5b) WT (Thermoproteus tenax Kra1); experiment: EMSA; conditions: EMSA: 100 mM HEPES/KOH pH 7, 10 mM beta-mercaptoethanol, 37 C 30 min, 6% native TBE PAGE; MST: 50 mM Tris-HCl pH 7.4, 150 mM NaCl, 0.05% Tween-20, 37 C 30 min …
# Thermoproteus tenax Cas7 = biological target: T2, Thermoproteus tenax Cas7; experiment: co-refolding reconstitution, soluble fraction by SDS-PAGE; 300 µg of each GdmCl-solubilized Cas5a, Cas3′, Cas3″ and Cas8a2 mixed with purified Cas7 and a Csa5 variant, co-refolded by stepwise dialysis into GdmCl-free buffer; aggregates precipitated (14,000×g, 30 min, 4°C), soluble proteins concentrated and analysed by SDS-PAGE; conditions: both partners purified
# [2] = biological target: T3, Thermoproteus tenax Cas5a; experiment: as above; conditions: both partners purified
# [3] = biological target: T4, Thermoproteus tenax Cas8a2; experiment: as above; conditions: both partners purified
# Csa5 (Csa5b) WT [4] = biological target: T5, Csa5 (Csa5b) WT; experiment: EMSA; 7-fold weaker than NT DNA; EMSA: 100 mM HEPES/KOH pH 7, 10 mM beta-mercaptoethanol, 37 C 30 min, 6% native TBE PAGE; MST: 50 mM Tris-HCl pH 7.4, 150 mM NaCl, 0.05% Tween-20, 37 C 30 min; conditions: protein: recombinant; tags: none stated (pET24a); label: 5' 32P
# Csa5 (Csa5b) WT [5] = biological target: T5, Csa5 (Csa5b) WT; experiment: MST; Tris pH 7.4, 150 mM NaCl; no metal; EMSA: 100 mM HEPES/KOH pH 7, 10 mM beta-mercaptoethanol, 37 C 30 min, 6% native TBE PAGE; MST: 50 mM Tris-HCl pH 7.4, 150 mM NaCl, 0.05% Tween-20, 37 C 30 min; conditions: protein: recombinant; tags: none stated (pET24a); label: 5' Cy3
# Csa5 (Csa5b) WT [6] = biological target: T5, Csa5 (Csa5b) WT; experiment: EMSA; no difference from GAG-PAM; EMSA: 100 mM HEPES/KOH pH 7, 10 mM beta-mercaptoethanol, 37 C 30 min, 6% native TBE PAGE; MST: 50 mM Tris-HCl pH 7.4, 150 mM NaCl, 0.05% Tween-20, 37 C 30 min; conditions: protein: recombinant; tags: none stated (pET24a); label: 5' 32P
# Csa5 (Csa5b) WT [7] = biological target: T5, Csa5 (Csa5b) WT; experiment: EMSA; 15 uM Csa5; EMSA: 100 mM HEPES/KOH pH 7, 10 mM beta-mercaptoethanol, 37 C 30 min, 6% native TBE PAGE; MST: 50 mM Tris-HCl pH 7.4, 150 mM NaCl, 0.05% Tween-20, 37 C 30 min; conditions: protein: recombinant; tags: none stated (pET24a); label: 5' 32P
# Csa5 (Csa5b) WT [8] = biological target: T5, Csa5 (Csa5b) WT; experiment: EMSA; duplex formed with 1000x cold crRNA; 15 uM Csa5; EMSA: 100 mM HEPES/KOH pH 7, 10 mM beta-mercaptoethanol, 37 C 30 min, 6% native TBE PAGE; MST: 50 mM Tris-HCl pH 7.4, 150 mM NaCl, 0.05% Tween-20, 37 C 30 min; conditions: protein: recombinant; tags: none stated (pET24a); label: 5' 32P on DNA
# Csa5 (Csa5b) WT [9] = biological target: T5, Csa5 (Csa5b) WT; experiment: EMSA; 3.75-60 uM Csa5; EMSA: 100 mM HEPES/KOH pH 7, 10 mM beta-mercaptoethanol, 37 C 30 min, 6% native TBE PAGE; MST: 50 mM Tris-HCl pH 7.4, 150 mM NaCl, 0.05% Tween-20, 37 C 30 min; conditions: protein: recombinant; tags: none stated (pET24a); label: 5' 32P
# Csa5 (Csa5b) WT [10] = biological target: T5, Csa5 (Csa5b) WT; experiment: EMSA; no difference from AGG-PAM; EMSA: 100 mM HEPES/KOH pH 7, 10 mM beta-mercaptoethanol, 37 C 30 min, 6% native TBE PAGE; MST: 50 mM Tris-HCl pH 7.4, 150 mM NaCl, 0.05% Tween-20, 37 C 30 min; conditions: protein: recombinant; tags: none stated (pET24a); label: 5' 32P
molecule,measurement,setting,value
GTCGACTAATACGACTCACTATAGGCCTATCGCTTGTCCAACCGGGCTCCTCTATATGTCGTCATTAGCTTACCGCTGAGCAATAACTAGCAAGCTT (double strand) [NT/T dsDNA 97 bp],binding signal (fold weaker than ssDNA),[1],14
B1,binding result,Thermoproteus tenax Cas7,binds
same,binding result,[2],binds
same,binding result,[3],binds
B2,binding result,Thermoproteus tenax Cas7,binds
same,binding result,[2],binds
same,binding result,[3],binds
B3,binding result,Thermoproteus tenax Cas7,binds
same,binding result,[2],binds
same,binding result,[3],binds
B4,binding result,Thermoproteus tenax Cas7,binds
same,binding result,[2],binds
same,binding result,[3],binds
GTCGACTAATACGACTCACTATAGGCCTATCGCTTGTC (ssDNA) [p1 (38 nt)],binding signal,Csa5 (Csa5b) WT [4],12 % bound at 15 uM
B5,Kd,Csa5 (Csa5b) WT [5],6.49 µM
B6,binding result,Csa5 (Csa5b) WT [6],binds
ATCGCTTGTCCAACCGGGCTCCTCTATATGTCGTCATT (ssDNA) [p2 (38 nt)],binding signal,Csa5 (Csa5b) WT [4],12 % bound at 15 uM
CGTCATTAGCTTACCGCTGAGCAATAACTAGCAAGCTT (ssDNA) [p3 (38 nt)],binding signal,Csa5 (Csa5b) WT [4],12 % bound at 15 uM
B7,binding result,Csa5 (Csa5b) WT [7],binds
B8,binding result,Csa5 (Csa5b) WT [8],no binding
B9,binding result,Csa5 (Csa5b) WT [9],binds
B10,binding result,Csa5 (Csa5b) WT [9],binds
B11,binding result,Csa5 (Csa5b) WT [10],binds
